The assay concerns the target EGF receptor (ErbB1) on A431 cells (UniProt P00533). The assay can be described thus: cell-based or functional assay.

B1: EGF variant v3 (EGFv3) (ligand)
chain: NSDPKCPLSHEGYCLNDGVCMYIGTLDRYACNCVVGYVGERCQYRDLKLAELR
The molecule B1 had a pEC50 (phosphoY1068 EGF receptor, MSD electrochemiluminescence, A431 cells) of 7.61 pEC50.

The values are drawn from patent US20110177056A1.
